Measurements from the RNAGym collection of RNA variant scans (doi:10.1073/pnas.2313332121).

B1: TPR t1 (parent)
chain: GACCAAUCUGCCCUCAGAGCUCGAGAACAUCUUCGGAUGCAGAGGAGGCAGGCUUCGGUGGCGCGAUAGCGCCAACGUCCUCAACCUCCAAUGCAUCCCACCACAUGAUGAUGCCUGAAGAGCCUUGGUUUUUUG

Variants of: B1
Assay: polymerase ribozyme fitness, log enrichment relative to wild type (log ratio); higher = more active; in vitro selection for triplet polymerase activity
Procedure, shortened: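 Libraries of mutants in each subunit of a heterodimeric triplet polymerase ribozyme were generated by PCR and transcribed. In triplicate, each went through one in vitro selection round: annealing with biotinylated primer, partner subunit and triplets; frozen incubation at −7 °C; gel excision of extended constructs; streptavidin-bead capture; RT-PCR. Fitness, taken from Illumina sequencing of input and output libraries, is the logarithm of a genotype's enrichment over wild-type enrichment, averaged across replicates with inverse-variance weights. The logarithm is base 2, and genotypes needed ≥10 input reads and ≥1 read per output to be kept.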

Variant | polymerase ribozyme fitness (log ratio)
C22G G110C C123G | -5.98
C20U A46C C72G | -3.17
C20A G69A | -5.6
C20A G69U | -1.94
C22A C53G | -5
U21C A95C G107C U109A G113A C124U | -7.51
C22G A111C | -3.66
C22G C40G G45A G47C C72G U112G U132A | -4.49
C22G U38G A43G G113U A119G | -4.22
C22A U87A | -4.86
C22G C53G G63C G113U | -5.64
C22U C114A | -4.76
U21A G44A C62U | -1.4
C20A G77U G120C | -1.96
C22A G48U C49U C62G G69A A108G A111C | -6.98
U21G G48C G63A | -4.12
C20U C28U G45C | -4.64
C22A C49U C73G C124G | -4.49
U21C C56U C62A G63A A90C C101A U112C | -6.74
C20U G52A | -0.737
C22G G51A U81A C115U U130A | -5.32
C20A U59C | -2.71
C20U C94G C101U U106A | -5.04
C20G C97A U116C C123G | -5.78

Variant | polymerase ribozyme fitness (log ratio)
U21G G71U G110U U112A | -1.83
C20U G23A G61A U112A G113A G122C U130C | -6.32
C22A A37U C53U C73G | -5.35
C22U A37G G61C C64A U112C U126G G128A | -6.8
C20A U32A G93C | -4.21
C22G U32G C70G C124A | -5.41
C22G G117A A119G | -1.55
C22G C53U C85U U112A | -3.51
C22U A74U C101A | -5.04
C22G G48C G77A C85G U112G | -3.5
C20G C76U G93C A95G C124A | -4.72
C22G G63A | -4.12
U21A U87A | 0.177
U21A U87G | -0.0526
C20U U96G | -1.9
U21C C56A G58A G113C U132A | -2.29
C20U C40G | -2.17
C22A A26U | -4.2
C20U A37U C72G C101A | -2.76
C20A U112C U116A | -3.11
U21A C76U A91C | -2.35
C22U A46C | -3.65
U21A A119U | -0.295
C22G G93C A103G G110U | -6.45

Variant | polymerase ribozyme fitness (log ratio)
C20U U38A A50U G71A | -4.89
C20U U55A C79U G120A | -1.1
C22A G36A U55C U96A A111U | -6.03
C20G G48A G60U U96A A105U G110U A118U | -6.72
C22G G36C G42U A91U U112A U129G | -4.65
U21A C72G C86G | -2.59
C20G G117C | -5.4
C20G U21A C62U U112A | -1.31
C20U G120C | -0.868
C20U A43G C62U U112C | -1.04
C22A C88U | -4.66
C20A G93U U112G | -4.35
C20U A24U C56U | -6.92
C22U G113A | -4.09
C22U G113U | -5.27
C20U C53G | -1.28
C22G C64U U112G | -2.89
C20G C62U G113C | -1.25
U21A C49G C62A G113C | -4.99
C22U C64U | -3.81
C22G A37U G69U U87G | -2.42
U21G A37G A41U U78C G113U | -2.05
C22G G57U U92C A100U C104A G113A | -7.69
U21C A41G G44A C98U | -4.24

Variant | polymerase ribozyme fitness (log ratio)
U21A C40A A46U A90U G93U | -2.45
C20U C76A | -2.08
C20U G47U C82G | -4.12
C20U G61U | -1.41
C20G A43G G48A C72G U106A C123A U129A | -6.54
C22G C72G | -2.12
C20U C72U C82U C115A | -1.91
C22G G39A C56U | -3.12
C20U A26G A43G C53G C62A C82U | -5.29
C20U G44U A50G A74G | -3.66
C22U A50G C104U | -3.86
C20U C124G | 0.389
C22G G42U | -4.63
C20U C22A C76U C85G C123U | -5.95
U21G U54C G58A U81A A91G A95U G113A U125G | -5.59
C22A A37U | -5.66
C20G G36U U92C C101A U106A U109A | -3.02
C20A U32A | -3.55
U21A A46U G93A G113U U130A U132A | -3.92
C20G C28U A37U A43U G45A U106A C123G | -7.36
U21C C70G C94U A111G G128A U131A | -3.27
C22U C53G | -4.85
C22U C53A | -4.52
U21A G60A U96C U116G | -1.53

Variant | polymerase ribozyme fitness (log ratio)
C20U A27C G117U | -6
C22A U59A | -5.52
C20U G61C A111G | -5.2
C22G U38G U87A C98G U112C C114A | -6.53
C20G A37G G69U C79U G117C | -1.73
C20U A41C | -3.04
C20U C31G A66U C73U C98A G110A | -6.9
C22G G69U U112A A118U | -0.675
U21A A66U U112G | -0.949
C20A U96A C102G C114A | -5.84
U21A G23U G42C A68G C94A U112A | -6.75
C20U G36U C70U G135U | -3.95
C22U C56A | -5.17
C22G G51A C72G | -4.82
C22U G36A C76G | -5.14
U21A A24G C70U | -2.2
U21A A27C | -3.89
C20U A43U | -2.08
C20G G63C | -4.72
C20G G63A | -6.16
C20U U32C U106A | -2.46
C22A C31A C64G C97U C115A G127U U129G U130G | -6.15
U21A C72A U125G | -0.653
U21C G57A C72U G77C U96A A121U U125A | -3.06

Variant | polymerase ribozyme fitness (log ratio)
C22U A90G C101A C114A | -5.96
C20U G69U C70G C94A | -3.15
C20U G57A G63A C115A | -3.54
C22A G44U G93A C124U | -4.53
U21A C104U | -0.273
C22G G61C A68C C123U | -6.92
C22A C40G G58C G60A | -4.83
U21A U81A C101A G113C | -4.64
C20A U87G U92G | -4.3
C22A C73A | -4.25
U21G C64U G77A G93U | -3.27
C20U A95G C104A U109C C114U C124A | -3.03
U21A A46U C53A G63C | -1.83
U21A A37C U38G U112G G122C C124U G135A | -1.11
C20G C53A G57U A91C A95G U109G | -3.11
C22A A43C U78C A83C C86U G113A | -5.47
C22A A83G U96A C114A | -5.87
U21A G23A A121C | -5.61
U21G A26U C72A C104A G110U U125G | -7.09
C22U C56U C114U | -4.27
U21C C28A G57U C70A U78G G110U | -3.7
U21A U59C G69U C123A G128C | -3.33
C22U G39U G60C C76U U78A C115G G127C | -6.22
C20G G47A G57U | -5.83

Variant | polymerase ribozyme fitness (log ratio)
U21A U92A | -3.73
C20U A91U | -2.81
C20U G60U | -1.52
C20U G60A | -1.03
C20A G60A G113C | -5.06
U21A G52A C89U | -1.17
C22G A26C C94A A95U A119G | -4.33
C20U C72G C102A | -3.19
U21G G93A C114U | -3.41
C22A G52U A66U U112G | -5.88
C20G G69U C99U | -5.06
C20G U32G C80A C99A C124G | -5.93
C22U C64U G77A | -4.03
C20U G52A C124U | 0.255
C20A G63A C102G G113C C115A G117C | -8.43
C20U G63A U96G | -3.22
C22G A50G C73G C94A G120C | -4.89
C20A G127A | -3.23
C20U G52U C53U C56A C123A | -3.62
C20A G63A | -3.49
C20U C22A G23U G44U G63A C88G A103C U109A | -6.38
C20U C22G A50C C97U U106A A121C | -4.3
C22U C72G C124U | -3.08
